# Changes are numbered by the printed parent chain. Names may count otherwise.
# T1: EsCas13d, nuclease-dead (Eubacterium siraeum, UniProt B0MS50, R295A;H300A;R849A;H854A)
# T1 sequence: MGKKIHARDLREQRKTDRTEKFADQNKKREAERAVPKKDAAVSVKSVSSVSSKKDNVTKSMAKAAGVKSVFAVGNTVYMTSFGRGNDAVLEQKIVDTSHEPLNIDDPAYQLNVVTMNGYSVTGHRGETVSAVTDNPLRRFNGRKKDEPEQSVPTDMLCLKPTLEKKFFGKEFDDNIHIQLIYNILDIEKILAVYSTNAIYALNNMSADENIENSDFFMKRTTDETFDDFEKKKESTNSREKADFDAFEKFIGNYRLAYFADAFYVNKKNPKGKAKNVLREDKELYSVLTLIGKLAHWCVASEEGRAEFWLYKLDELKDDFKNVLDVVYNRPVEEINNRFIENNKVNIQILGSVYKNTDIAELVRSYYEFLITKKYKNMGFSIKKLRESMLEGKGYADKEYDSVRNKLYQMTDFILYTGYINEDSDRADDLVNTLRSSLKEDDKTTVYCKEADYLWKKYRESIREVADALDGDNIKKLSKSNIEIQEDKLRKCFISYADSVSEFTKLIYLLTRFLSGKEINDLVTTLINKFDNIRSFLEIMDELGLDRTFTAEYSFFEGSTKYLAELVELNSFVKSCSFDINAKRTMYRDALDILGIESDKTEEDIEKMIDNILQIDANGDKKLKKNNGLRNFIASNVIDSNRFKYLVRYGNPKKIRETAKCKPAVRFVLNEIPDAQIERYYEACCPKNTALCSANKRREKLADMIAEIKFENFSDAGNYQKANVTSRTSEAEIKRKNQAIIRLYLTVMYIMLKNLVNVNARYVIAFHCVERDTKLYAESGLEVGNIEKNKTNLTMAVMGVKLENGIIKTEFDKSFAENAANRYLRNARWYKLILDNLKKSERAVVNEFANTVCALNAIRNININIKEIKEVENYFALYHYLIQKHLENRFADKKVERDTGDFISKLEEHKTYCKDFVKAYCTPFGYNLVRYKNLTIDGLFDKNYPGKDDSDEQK
# B1: target 1 insA 3' of 7,insU 3' of 4 (mixed)
# RNA 1: CACCCGUGCAAAAAUGCAGGGGUCUAAAACUGAGCGGAUAACCUCUCUAUGG
# RNA 2: GGGAAUGGAUCCACAUCUACGAAUUCGUACCAUAGAGAGGUUAUCACGCUUCACCGAGAUCGGAAGAGCACACGU
# B2: target 1 C4A,C21A (mixed)
# RNA 1: B1 RNA 1
# RNA 2: GGGAAUGGAUCCACAUCUACGAAUUCGUACAAUAGAGAGGUUAUCCGAUCACCGAGAUCGGAAGAGCACACGU
# B3: target 1 insG 3' of 16,insU 3' of 13 (mixed)
# RNA 1: B1 RNA 1
# RNA 2: B1 RNA 2 with A38G, G39A, U42G, A43U, C45A, A46U, G48C, C49G, U50C
# B4: target 2 MT 5'PFS GUC 3'PFS AGC (mixed)
# RNA 1: CACCCGUGCAAAAUUGCAGGGGUCUAAAACCUUCUCCAAAUUGUUUCAUCCU
# RNA 2: GGGAAUGGAUCCACAUCUACGAAUUCGUCAGGAUGAAACAAUUUGGAGAAGAGCAGAUCGGAAGAGCACACGU
# B5: target 2 MT 5'PFS UAC 3'PFS AGA (mixed)
# RNA 1: B4 RNA 1
# RNA 2: B4 RNA 2 with G27U, U28A, C54A
# B6: target 2 MT 5'PFS UGC 3'PFS AAC (mixed)
# RNA 1: B4 RNA 1
# RNA 2: B4 RNA 2 with G27U, U28G, G53A
# B7: target 2 MT 5'PFS GAC 3'PFS AUG (mixed)
# RNA 1: B4 RNA 1
# RNA 2: B4 RNA 2 with U28A, G53U, C54G
# B8: target 2 MT 5'PFS UAA 3'PFS CGC (mixed)
# RNA 1: B4 RNA 1
# RNA 2: B4 RNA 2 with G27U, U28A, C29A, A52C
# B9: target 2 MT 5'PFS ACC 3'PFS AUG (mixed)
# RNA 1: B4 RNA 1
# RNA 2: B4 RNA 2 with G27A, U28C, G53U, C54G
# B10: target 2 MT 5'PFS UAC 3'PFS AGG (mixed)
# RNA 1: B4 RNA 1
# RNA 2: B4 RNA 2 with G27U, U28A, C54G
# B11: target 2 MT 5'PFS ACA 3'PFS UCU (mixed)
# RNA 1: B4 RNA 1
# RNA 2: B4 RNA 2 with G27A, U28C, C29A, A52U, G53C, C54U
# B12: target 2 MT 5'PFS ACA 3'PFS UCC (mixed)
# RNA 1: B4 RNA 1
# RNA 2: B4 RNA 2 with G27A, U28C, C29A, A52U, G53C
# B13: target 2 MT 5'PFS CGC 3'PFS CCA (mixed)
# RNA 1: B4 RNA 1
# RNA 2: B4 RNA 2 with G27C, U28G, A52C, G53C, C54A
# B14: target 2 MT 5'PFS UGA 3'PFS CUC (mixed)
# RNA 1: B4 RNA 1
# RNA 2: B4 RNA 2 with G27U, U28G, C29A, A52C, G53U
# B15: target 2 MT 5'PFS GAC 3'PFS AUC (mixed)
# RNA 1: B4 RNA 1
# RNA 2: B4 RNA 2 with U28A, G53U
# B16: target 2 MT 5'PFS UGC 3'PFS UCA (mixed)
# RNA 1: B4 RNA 1
# RNA 2: B4 RNA 2 with G27U, U28G, A52U, G53C, C54A
# B17: target 2 MT 5'PFS UAC 3'PFS UAG (mixed)
# RNA 1: B4 RNA 1
# RNA 2: B4 RNA 2 with G27U, U28A, A52U, G53A, C54G
# B18: target 2 MT 5'PFS CUA 3'PFS CAC (mixed)
# RNA 1: B4 RNA 1
# RNA 2: B4 RNA 2 with G27C, C29A, A52C, G53A
# B19: target 2 MT 5'PFS CGG 3'PFS UGC (mixed)
# RNA 1: B4 RNA 1
# RNA 2: B4 RNA 2 with G27C, U28G, C29G, A52U
# B20: target 2 MT 5'PFS ACC 3'PFS AUU (mixed)
# RNA 1: B4 RNA 1
# RNA 2: B4 RNA 2 with G27A, U28C, G53U, C54U
# B21: target 2 MT 5'PFS ACC 3'PFS AUA (mixed)
# RNA 1: B4 RNA 1
# RNA 2: B4 RNA 2 with G27A, U28C, G53U, C54A
# B22: target 2 MT 5'PFS CGC 3'PFS CCG (mixed)
# RNA 1: B4 RNA 1
# RNA 2: B4 RNA 2 with G27C, U28G, A52C, G53C, C54G
# B23: target 2 MT 5'PFS UGC 3'PFS AAA (mixed)
# RNA 1: B4 RNA 1
# RNA 2: B4 RNA 2 with G27U, U28G, G53A, C54A
# B24: target 2 MT 5'PFS GAU 3'PFS AAU (mixed)
# RNA 1: B4 RNA 1
# RNA 2: B4 RNA 2 with U28A, C29U, G53A, C54U
# B25: target 2 MT 5'PFS UAC 3'PFS UAC (mixed)
# RNA 1: B4 RNA 1
# RNA 2: B4 RNA 2 with G27U, U28A, A52U, G53A
# B26: target 2 MT 5'PFS UAC 3'PFS AGC (mixed)
# RNA 1: B4 RNA 1
# RNA 2: B4 RNA 2 with G27U, U28A
# B27: target 2 MT 5'PFS UGC 3'PFS CCA (mixed)
# RNA 1: B4 RNA 1
# RNA 2: B4 RNA 2 with G27U, U28G, A52C, G53C, C54A
# B28: target 2 MT 5'PFS ACC 3'PFS AUC (mixed)
# RNA 1: B4 RNA 1
# RNA 2: B4 RNA 2 with G27A, U28C, G53U
# B29: target 2 MT 5'PFS UGC 3'PFS CCG (mixed)
# RNA 1: B4 RNA 1
# RNA 2: B4 RNA 2 with G27U, U28G, A52C, G53C, C54G
# B30: target 2 MT 5'PFS GAC 3'PFS CGA (mixed)
# RNA 1: B4 RNA 1
# RNA 2: B4 RNA 2 with U28A, A52C, C54A
# B31: target 2 MT 5'PFS UGA 3'PFS CUA (mixed)
# RNA 1: B4 RNA 1
# RNA 2: B4 RNA 2 with G27U, U28G, C29A, A52C, G53U, C54A
# B32: target 2 MT 5'PFS UGC 3'PFS UCG (mixed)
# RNA 1: B4 RNA 1
# RNA 2: B4 RNA 2 with G27U, U28G, A52U, G53C, C54G
# B33: target 2 MT 5'PFS UGC 3'PFS AAG (mixed)
# RNA 1: B4 RNA 1
# RNA 2: B4 RNA 2 with G27U, U28G, G53A, C54G
# Biological target: T1, EsCas13d, nuclease-dead
# Assay: crRNA (strand 1, pre-loaded); Mg2+; 40 mM Tris-HCl pH 7.5, 150 mM NaCl, 6 mM MgCl2, 1 mM DTT, 0.1% Tween-20, 0.2 mg/ml BSA; 25 C; 10 min per concentration, then washed
# Conditions: tags: His6-TwinStrep-SUMO cleaved; N-terminal SNAP kept (SNAP-Surface 488); label: 3' end held by stalled T7 RNA polymerase
row,Binder,Kd
1,B1,6.3 ± 0.5 nM
2,B2,41 ± 9 nM
3,B3,23.2 ± 3.2 nM
4,B4,13.2 ± 2.3 nM
5,B5,6.7 ± 0.9 nM
6,B6,13 ± 4 nM
7,B7,22 ± 5 nM
8,B8,4.3 ± 0.5 nM
9,B9,5.8 ± 1.5 nM
10,B10,4.7 ± 0.7 nM
11,B11,8.6 ± 2.3 nM
12,B12,10 ± 2.5 nM
13,B13,22 ± 4 nM
14,B14,47 ± 20 nM
15,B15,13.5 ± 2.6 nM
16,B16,10.4 ± 1.8 nM
17,B17,6.7 ± 0.6 nM

row,Binder,Kd
1,B18,3.01 ± 0.32 nM
2,B19,4.3 ± 0.5 nM
3,B20,~12 nM
4,B21,6.7 ± 3.2 nM
5,B22,8.1 ± 1.3 nM
6,B23,14 ± 5 nM
7,B24,9.1 ± 1.6 nM
8,B25,6.2 ± 0.8 nM
9,B26,4.2 ± 0.5 nM
10,B27,16 ± 5 nM
11,B28,5.5 ± 0.7 nM
12,B29,61 ± 15 nM
13,B30,13.6 ± 1.5 nM
14,B31,8.7 ± 1.1 nM
15,B32,60 ± 24 nM
16,B33,15 ± 3.3 nM
